# From paper PMC10844655, “G-quadruplexes promote the motility in MAZ phase-separated condensates to activate CCND1 expression and contribute to hepatocarcinogenesis”
# Where a chain is given by its changes, count along the chain named.
# T1: MAZ WT (human, UniProt P56270 1-477)
# T1 sequence: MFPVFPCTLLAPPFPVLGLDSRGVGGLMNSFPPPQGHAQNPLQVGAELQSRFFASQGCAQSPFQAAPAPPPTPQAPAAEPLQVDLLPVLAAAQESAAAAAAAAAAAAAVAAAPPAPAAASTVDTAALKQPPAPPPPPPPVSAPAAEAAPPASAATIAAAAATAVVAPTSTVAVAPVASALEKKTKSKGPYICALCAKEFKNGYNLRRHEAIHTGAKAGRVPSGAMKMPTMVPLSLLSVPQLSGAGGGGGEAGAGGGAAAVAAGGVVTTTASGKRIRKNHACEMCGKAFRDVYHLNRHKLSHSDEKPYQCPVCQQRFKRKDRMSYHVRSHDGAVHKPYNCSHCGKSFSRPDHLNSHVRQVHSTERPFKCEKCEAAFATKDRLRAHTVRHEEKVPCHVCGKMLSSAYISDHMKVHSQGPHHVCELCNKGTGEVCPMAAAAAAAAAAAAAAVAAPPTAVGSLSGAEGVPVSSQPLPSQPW
# T2: MAZ(ZF4) (human, UniProt P56270 337-360)
# T2 chain: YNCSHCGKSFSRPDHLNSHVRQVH
# T3: MAZ(ZF3-4) (human, UniProt P56270 307-360)
# T3 sequence: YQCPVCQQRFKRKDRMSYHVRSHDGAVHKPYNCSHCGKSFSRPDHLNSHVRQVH
# T4: MAZ(ZF2-3) (human, UniProt P56270 279-329)
# T4 sequence: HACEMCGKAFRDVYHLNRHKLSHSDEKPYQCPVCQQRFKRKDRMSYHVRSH
# T5: MAZ(ZF2-4) (human, UniProt P56270 279-360)
# T5 sequence: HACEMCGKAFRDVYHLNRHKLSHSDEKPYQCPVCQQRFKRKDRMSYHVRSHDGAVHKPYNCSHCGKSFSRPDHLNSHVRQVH
# B1: CCND1-G4 Mut2 (structured_DNA)
# DNA: ATGGGAGCGAGAGGAGGGCGGGGGCGGACGCAGGAGGAGGGGGCGCGGGCG
# B2: CCND1-G4 Mut1 (ssDNA)
# DNA: ATGAGAGCGAGAGAGAGACGAGAGCGAGCGCAGAGAGAGAGAGCGCGAGCG
# B3: CCND1-G4 WT (structured_DNA)
# DNA: B1 DNA with A10G, A15G, A28G, A35G
# B4: BS1 (dsDNA)
# DNA 1: AGGGGGAGGGGGCG
# DNA 2: CGCCCCCTCCCCCT
# B5: BS2 (dsDNA)
# DNA 1: AGCGGGAGGGGGGC
# DNA 2: GCCCCCCTCCCGCT
# B6: BS3 (dsDNA)
# DNA 1: GGGGGGCGGGGGCG
# DNA 2: CGCCCCCGCCCCCC
# Key:
# MAZ WT [1] = target: T1, MAZ WT; test: EMSA; KCl-annealed; Binding buffer 250 mM HEPES, 500 mM KCl, 20 mM MgSO4, 10 mM DTT pH 8.0 (so in the source), on ice 30 min; G4 oligos annealed in 50 mM Tris-HCl, 50 mM KCl, 40% PEG200; 8% native PAGE (G4 gels with 100 mM KCl, 40% PEG200); details: protein: recombinant, tags: His6 (also mCherry-His6 fusion), label: FAM
# BRD4-IDR = BRD4-IDR (UniProt O60885 674-1351); test: EMSA; Binding buffer 250 mM HEPES, 500 mM KCl, 20 mM MgSO4, 10 mM DTT pH 8.0 (so in the source), on ice 30 min; G4 oligos annealed in 50 mM Tris-HCl, 50 mM KCl, 40% PEG200; 8% native PAGE (G4 gels with 100 mM KCl, 40% PEG200); details: protein: recombinant, tags: EGFP, His6, label: FAM
# MED1-IDR = MED1-IDR (UniProt Q15648 948-1574); test: as above; details: protein: recombinant, tags: EGFP, His6, label: FAM
# MAZ WT [2] = target: T1, MAZ WT; test: competition; unlabeled WT vs FAM-WT; Binding buffer 250 mM HEPES, 500 mM KCl, 20 mM MgSO4, 10 mM DTT pH 8.0 (so in the source), on ice 30 min; G4 oligos annealed in 50 mM Tris-HCl, 50 mM KCl, 40% PEG200; 8% native PAGE (G4 gels with 100 mM KCl, 40% PEG200); details: protein: recombinant; tags: His6 (also mCherry-His6 fusion); label: FAM; G4 parallel, intra- and/or intermolecular
# MAZ(ZF4) = target: T2, MAZ(ZF4); test: EMSA; Binding buffer 250 mM HEPES, 500 mM KCl, 20 mM MgSO4, 10 mM DTT pH 8.0 (so in the source), on ice 30 min; G4 oligos annealed in 50 mM Tris-HCl, 50 mM KCl, 40% PEG200; 8% native PAGE (G4 gels with 100 mM KCl, 40% PEG200); details: protein: recombinant; tags: mCherry; His6; label: FAM; G4 parallel, intra- and/or intermolecular
# MAZ(ZF3-4) = target: T3, MAZ(ZF3-4); test: as above; details: protein: recombinant; tags: mCherry; His6; label: FAM; G4 parallel, intra- and/or intermolecular
# MAZ(ZF2-3) = target: T4, MAZ(ZF2-3); test: as above; details: protein: recombinant; tags: mCherry; His6; label: FAM; G4 parallel, intra- and/or intermolecular
# MAZ(ZF2-4) = target: T5, MAZ(ZF2-4); test: as above; details: protein: recombinant; tags: mCherry; His6; label: FAM; G4 parallel, intra- and/or intermolecular
# MAZ WT [3] = target: T1, MAZ WT; test: as above; details: protein: recombinant, tags: His6 (also mCherry-His6 fusion), label: FAM
# [4] = G4 parallel, intra- and/or intermolecular
# Sequence of MED1-IDR (Q15648 948-1574): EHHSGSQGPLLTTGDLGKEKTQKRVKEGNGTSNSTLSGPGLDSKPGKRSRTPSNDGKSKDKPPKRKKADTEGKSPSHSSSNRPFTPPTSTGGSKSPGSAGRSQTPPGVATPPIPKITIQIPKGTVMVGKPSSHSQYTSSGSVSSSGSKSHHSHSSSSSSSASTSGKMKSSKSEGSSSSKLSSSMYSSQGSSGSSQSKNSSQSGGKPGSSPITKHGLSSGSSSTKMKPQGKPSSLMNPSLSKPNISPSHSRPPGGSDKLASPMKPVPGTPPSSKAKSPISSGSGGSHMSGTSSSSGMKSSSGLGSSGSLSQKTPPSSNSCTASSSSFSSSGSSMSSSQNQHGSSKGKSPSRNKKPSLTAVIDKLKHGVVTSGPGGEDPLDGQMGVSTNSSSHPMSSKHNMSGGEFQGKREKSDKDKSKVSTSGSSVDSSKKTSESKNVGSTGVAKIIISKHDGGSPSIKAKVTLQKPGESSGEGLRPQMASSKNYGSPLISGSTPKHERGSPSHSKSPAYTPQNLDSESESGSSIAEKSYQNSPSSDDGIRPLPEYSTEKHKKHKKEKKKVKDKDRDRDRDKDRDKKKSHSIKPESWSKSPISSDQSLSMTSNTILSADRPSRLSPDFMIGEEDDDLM
binder,measurement,setting,value
B1,binding result,MAZ WT [1]; intermolecular parallel G4,binds
B2,binding result,MAZ WT [1]; no G4,no binding
same,binding result,BRD4-IDR; no G4,no binding
same,binding result,MED1-IDR; no G4,no binding
B3,binding result,MAZ WT [2],binds
same,binding result,MAZ(ZF4),no binding
same,binding result,BRD4-IDR; [4],binds
same,binding result,MAZ(ZF3-4),no binding
same,binding result,MED1-IDR; [4],binds
same,binding result,MAZ(ZF2-3),no binding
same,binding result,MAZ(ZF2-4),binds
TGAGGGTGGGTAGGGTGGGTAA (structured_DNA) [MYC-G4 (Table S2)],binding result,"MAZ WT [3]; G4 parallel, 3 quartets",binds
GGGCGCGGGAGGAATTGGGCGGG (structured_DNA) [BCL2-G4],binding result,"MAZ WT [3]; G4 hybrid, 3 quartets",binds
GGAGGAGGAGGAGGAGGAGGAGGA (structured_DNA) [MYB-G4],binding result,MAZ WT [3]; 2 G4s with two quartets,binds
GGGGCGCGGGGCGCGGGGCATGGGG (structured_DNA) [MDM2-G4],binding result,"MAZ WT [3]; G4 antiparallel, 4 quartets",binds
TAGGGTTAGGGTTAGGGTTAGGGTTAG (structured_DNA) [TEL-G4],binding result,"MAZ WT [3]; G4 hybrid, 3 quartets",binds
B4,binding result,MAZ WT [3]; blunt,binds
B5,binding result,MAZ WT [3]; blunt,binds
B6,binding result,MAZ WT [3]; blunt,binds
